Measured values published in patent US20090232783, “Method for Regulating Production of Hemoglobin Beta Chains” (published 2009).

Target: Nuclear ferritin-H (K562 nuclear extract, crude or heat/proteinase K enriched) (Homo sapiens, UniProt P02794 P02794:2-183)
Experiment: competition; competes about as well as wt
Conditions: protein: extract
Procedure: Gel mobility shift assays. Gel retardation assays (i.e., gel shifts) were used to determine DNA binding of the extract proteins to the Rsa I (95 bp) fragment and synthetic oligonucleotides (Berg et al., (1989) Nucleic Acids Res 17, 8833-52; Fried & Crothers (1981) Nucleic Acids Res 9, 6505-25). Each reaction contained 0.5-2 ng of DNA, 1.0-5.0 ug of extract protein, 1.0-5.0 ug of poly dI:poly dC, 100 mM KCl, and binding buffer (Berg et al., (1989) Nucleic Acids Res 17, 8833-52). Unlabeled competitor oligonucleotides ranged from 15- to 2000-fold molar excess and were included in the reaction mixture with the probe before adding protein. Gels used for retardation assays were 4%, 5%, or 6% acrylamide and the running buffer was low ionic strength TAE (Berg et al., (1989) Nucleic Acids Res 17, 8833-52).
Definition of the binding site with competition gel shifts. To further localize the binding of ferritin, the 37 bp oligonucleotide was mutated in different places, replacing six nucleotides at a time with all A's, all C's, or all G's, with complementary nucleotide replacements in the opposing strand (FIG. 4A). A competition gel shift assay was done with the partially purified protein from heated K562 nuclear extract, in which each of the unlabeled mutant oligos as well as the native sequence was competed against the 32-P-labeled native sequence for binding.

| Binder | binding signal [fold] |
| --- | --- |
| mutant oligo no. 1 (dsDNA) DNA 1: AAGGGGGGAGCCAGTGCCAGAAGAGCCAAGGACAGGT DNA 2: ACCTGTCCTTGGCTCTTCTGGCACTGGCTCCCCCCTT | ~1 |
| mutant oligo no. 3 (dsDNA) DNA 1: AACTCCTAAGCCAGTGCCAGAACAGCCAACCCCCCGT DNA 2: ACGGGGGGTTGGCTGTTCTGGCACTGGCTTAGGAGTT | ~1 |
| mutant oligo no. 2 (dsDNA) DNA 1: AACTCCTAAGCCAGTGCCAGAAAAAACAAGGACAGGT DNA 2: ACCTGTCCTTGTTTTTTCTGGCACTGGCTTAGGAGTT | ~1 |
